{"source": "patent US20030191048A1", "target": "c-Kit (CD 117) receptor tyrosine kinase on DMVEC (human) (UniProt P10721)", "sequence (P10721 26-976)": "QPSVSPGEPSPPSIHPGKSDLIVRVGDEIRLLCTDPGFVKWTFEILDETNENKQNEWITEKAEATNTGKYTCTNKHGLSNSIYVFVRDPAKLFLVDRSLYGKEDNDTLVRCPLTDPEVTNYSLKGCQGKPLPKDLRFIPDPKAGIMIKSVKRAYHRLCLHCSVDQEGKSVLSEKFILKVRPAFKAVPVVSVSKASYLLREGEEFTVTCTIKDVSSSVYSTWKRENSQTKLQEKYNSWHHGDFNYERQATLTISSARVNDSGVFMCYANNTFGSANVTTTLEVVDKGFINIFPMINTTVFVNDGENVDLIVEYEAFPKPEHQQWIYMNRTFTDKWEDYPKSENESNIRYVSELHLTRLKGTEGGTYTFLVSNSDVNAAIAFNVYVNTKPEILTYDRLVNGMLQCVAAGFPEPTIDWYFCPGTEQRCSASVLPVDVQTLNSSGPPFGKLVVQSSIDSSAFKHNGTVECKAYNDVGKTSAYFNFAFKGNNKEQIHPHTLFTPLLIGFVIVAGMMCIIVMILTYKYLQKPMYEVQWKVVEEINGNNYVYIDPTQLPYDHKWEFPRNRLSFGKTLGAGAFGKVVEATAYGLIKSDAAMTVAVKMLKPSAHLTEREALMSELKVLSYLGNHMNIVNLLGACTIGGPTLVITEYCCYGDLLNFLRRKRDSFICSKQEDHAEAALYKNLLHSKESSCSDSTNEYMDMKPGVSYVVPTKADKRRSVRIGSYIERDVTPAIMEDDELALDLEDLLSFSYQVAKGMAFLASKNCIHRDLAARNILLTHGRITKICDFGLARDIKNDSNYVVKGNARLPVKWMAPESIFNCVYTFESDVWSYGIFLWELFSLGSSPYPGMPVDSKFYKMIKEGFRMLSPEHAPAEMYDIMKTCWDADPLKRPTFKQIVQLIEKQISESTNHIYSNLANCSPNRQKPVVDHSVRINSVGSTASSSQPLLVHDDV", "experiment": "cell-based or functional assay"}
{"substance": "recombinant stem cell factor (SCF) (from UniProt P21583 26-189) (ligand)", "values": [{"measurement": "SCF dose giving maximal proliferation (XTT-based assay), mock- and KSHV-infected DMVEC", "value": "50 to 100", "unit": "ng/mL"}, {"measurement": "proliferation (XTT-based assay), increase over basal proliferation, KSHV-infected DMVEC", "value": "< 85", "unit": "%"}, {"measurement": "proliferation (XTT-based assay), increase over basal proliferation, mock-infected DMVEC", "value": "< 40", "unit": "%"}]}
